Experimental data from patent US20170306033A1 (Amgen, published 2017).
Where a chain is given by its changes, count along the chain named.

T1: human PAC1 receptor (human, UniProt P41586 21-468)
T1 sequence: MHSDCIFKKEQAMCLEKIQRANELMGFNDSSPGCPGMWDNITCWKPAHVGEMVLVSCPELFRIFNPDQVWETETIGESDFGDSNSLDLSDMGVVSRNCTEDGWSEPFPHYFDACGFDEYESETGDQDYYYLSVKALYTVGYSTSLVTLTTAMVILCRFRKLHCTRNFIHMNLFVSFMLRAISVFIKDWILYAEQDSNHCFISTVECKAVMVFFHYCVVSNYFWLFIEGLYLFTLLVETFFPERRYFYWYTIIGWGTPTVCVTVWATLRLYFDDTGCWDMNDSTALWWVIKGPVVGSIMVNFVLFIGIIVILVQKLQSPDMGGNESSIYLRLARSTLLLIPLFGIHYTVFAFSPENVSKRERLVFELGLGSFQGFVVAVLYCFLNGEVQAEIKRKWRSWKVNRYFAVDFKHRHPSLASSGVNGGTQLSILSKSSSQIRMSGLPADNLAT

B1: iPS:327104 (bispecific antibody, human IgG1, kappa, lambda, N297G)
light 1: EIVLTQSPATLSLSPGERATLSCRASQSVGRSLHWYQQKPGQAPRLLIKYASQSLSGIPARFSGSGSGTDFTLTISSLEPEDFAVYYCHQSSRLPFTFGPGTKVDIKRTVAAPSVFIFPPSDEQLKSGTASVVCLLNNFYPREAKVQWKVDNALQSGNSQESVTEQDSKDSTYSLESTLTLSKADYEKHKVYACEVTHQGLSSPVTKSFNRGEC
heavy 1: not shown
light 2: not shown
heavy 2: not shown
B2: iPS:326654 (bispecific antibody, human IgG2, kappa, lambda)
light 1: B1 light 1
heavy 1: QVQLVESGGGVVQPGRSLRLSCAASGFTFSRFAMHWVRQAPGKGLEWVAVISYDGGNKYYAESVKGRFTISRDNSKNTLYLQMNSLRAEDTALFYCARGYDVLTGYPDYWGQGTLVTVSSASTKGPSVFPLAPCSRSTSESTAALGCLVKDYFPEPVTVSWNSGALTSGVHTFPAVLQSSGLYSLKSVVTVPSSNFGTQTYTCNVDHKPSNTKVDKTVERKCCVECPPCPAPPVAGPSVFLFPPKPKDTLMISRTPEVTCVVVDVSHEDPEVQFNWYVDGVEVHNAKTKPREEQFNSTFRVVSVLTVVHQDWLNGKEYKCKVSNKGLPAPIEKTISKTKGQPREPQVYTLPPSREEMTKNQVSLTCLVDGFYPSDIAVEWESNGQPENNYDTTPPMLDSDGSFFLYSDLTVDKSRWQQGNVFSCSVMHEALHNHYTQKSLSLSPGK
light 2: not shown
heavy 2: not shown
B3: iPS:327103 (bispecific antibody, human IgG1, kappa, lambda, N297G)
light 1: DIQLTQSPSFLSASVGDRVTITCRASQSIGRSLHWYQQKPGKAPKLLIKYASQSLSGVPSRFSGSGSGTEFTLTISSLQPEDFATYYCHQSSRLPFTFGPGTKVDIKRTVAAPSVFIFPPSDEQLKSGTASVVCLLNNFYPREAKVQWKVDNALQSGNSQESVTEQDSKDSTYSLESTLTLSKADYEKHKVYACEVTHQGLSSPVTKSFNRGEC
heavy 1: not shown
light 2: not shown
heavy 2: not shown
B4: iPS:327111 (bispecific antibody, human IgG1, kappa, lambda, N297G)
light 1: B3 light 1
heavy 1: not shown
light 2: not shown
heavy 2: not shown
B5: iPS:327091 (bispecific antibody, human IgG1, kappa, N297G)
light 1: not shown
heavy 1: not shown
light 2: EIVLTQSPGTLSLSPGERATLSCRASQSVSSGYLTWYQQKPGQAPRLLIYGASSRATGIPDRFSGSGSGTDFTLTISRLEPEDFAVYYCQQYGNSLSRFGQGTKLEIKRTVAAPSVFIFPPSDEQLKSGTASVVCLLNNFYPREAKVQWKVDNALQSGNSQESVTEQDSKDSTYSLKSTLTLSKADYEKHKVYACEVTHQGLSSPVTKSFNRGEC
heavy 2: not shown
B6: iPS:327024 (bispecific antibody, human IgG1, kappa, N297G)
light 1: not shown
heavy 1: not shown
light 2: B5 light 2 with Q101K
heavy 2: not shown
B7: iPS:327092 (bispecific antibody, human IgG1, kappa, N297G)
light 1: not shown
heavy 1: not shown
light 2: B5 light 2
heavy 2: not shown
B8: iPS:327093 (bispecific antibody, human IgG1, kappa, N297G)
light 1: B3 light 1
heavy 1: not shown
light 2: B5 light 2
heavy 2: not shown
B9: iPS:327094 (bispecific antibody, human IgG1, kappa, N297G)
light 1: B1 light 1
heavy 1: not shown
light 2: B5 light 2
heavy 2: not shown
B10: iPS:327025 (bispecific antibody, human IgG1, kappa, N297G)
light 1: B3 light 1 with P100E
heavy 1: not shown
light 2: B5 light 2 with Q101K
heavy 2: not shown
B11: iPS:327023 (bispecific antibody, human IgG1, kappa, N297G)
light 1: DIQMTQSPSSLSASVGDRITITCRASQSISRYLNWYQQKPGKAPKLLIYAASSLQSGIPSRFSGSGSGTDFTLTINSLQPEDFATYFCQQSYSPPFTFGEGTKVDIKRTVAAPSVFIFPPSDEQLKSGTASVVCLLNNFYPREAKVQWKVDNALQSGNSQESVTEQDSKDSTYSLESTLTLSKADYEKHKVYACEVTHQGLSSPVTKSFNRGEC
heavy 1: not shown
light 2: B5 light 2 with Q101K
heavy 2: not shown
B12: iPS:326626 (bispecific antibody, human IgG2, kappa, lambda)
light 1: not shown
heavy 1: QVQLQQSGPGLVKPSQTLSLTCAISGDSVSSNSATWNWIRQSPSRGLEWLGRTYYRSKWSNHYAVSVKSRITINPDTSKSQFSLQLNSVTPEDTAVYYCARGTWKQLWFLDHWGQGTLVTVSSASTKGPSVFPLAPCSRSTSESTAALGCLVKDYFPEPVTVSWNSGALTSGVHTFPAVLQSSGLYSLKSVVTVPSSNFGTQTYTCNVDHKPSNTKVDKTVERKCCVECPPCPAPPVAGPSVFLFPPKPKDTLMISRTPEVTCVVVDVSHEDPEVQFNWYVDGVEVHNAKTKPREEQFNSTFRVVSVLTVVHQDWLNGKEYKCKVSNKGLPAPIEKTISKTKGQPREPQVYTLPPSREEMTKNQVSLTCLVDGFYPSDIAVEWESNGQPENNYDTTPPMLDSDGSFFLYSDLTVDKSRWQQGNVFSCSVMHEALHNHYTQKSLSLSPGK
light 2: not shown
heavy 2: not shown
B13: iPS:327106 (bispecific antibody, human IgG1, kappa, lambda, N297G)
light 1: not shown
heavy 1: not shown
light 2: not shown
heavy 2: EVQLVESGGGLVKPGGSLRLSCAASGFTFGNAWMSWVRQAPGKELEWVGRIKSKTDGGTTDYAAPVKGRFTISRDDSKNTLYLQMNSLKTEDTAVYFCTTDRTGYSISWSSYYYYYGMDVWGQGTTVTVSSASTKGPSVFPLAPSSKSTSGGTAALGCLVKDYFPEPVTVSWNSGALTSGVHTFPAVLQSSGLYSLESVVTVPSSSLGTQTYICNVNHKPSNTKVDKKVEPKSCDKTHTCPPCPAPELLGGPSVFLFPPKPKDTLMISRTPEVTCVVVDVSHEDPEVKFNWYVDGVEVHNAKTKPCEEQYGSTYRCVSVLTVLHQDWLNGKEYKCKVSNKALPAPIEKTISKAKGQPREPQVYTLPPSRKEMTKNQVSLTCLVKGFYPSDIAVEWESNGQPENNYKTTPPVLKSDGSFFLYSKLTVDKSRWQQGNVFSCSVMHEALHNHYTQKSLSLSPGK
B14: iPS:327108 (bispecific antibody, human IgG1, kappa, lambda, N297G)
light 1: B1 light 1 with P100E
heavy 1: not shown
light 2: not shown
heavy 2: B13 heavy 2
B15: iPS:327105 (bispecific antibody, human IgG1, kappa, lambda, N297G)
light 1: B11 light 1
heavy 1: not shown
light 2: not shown
heavy 2: B13 heavy 2
B16: iPS:327107 (bispecific antibody, human IgG1, kappa, lambda, N297G)
light 1: B3 light 1 with P100E
heavy 1: not shown
light 2: not shown
heavy 2: B13 heavy 2

How the values were obtained:
human CGRP receptor = human CGRP receptor (human, UniProt Q16602 23-461; O60894 27-148); experiment: cell-based or functional assay
human PAC1 receptor = target: T1, human PAC1 receptor; experiment: cell-based or functional assay

Sequence of human CGRP receptor (Q16602 23-461 limits assumed, chain 1 of 2): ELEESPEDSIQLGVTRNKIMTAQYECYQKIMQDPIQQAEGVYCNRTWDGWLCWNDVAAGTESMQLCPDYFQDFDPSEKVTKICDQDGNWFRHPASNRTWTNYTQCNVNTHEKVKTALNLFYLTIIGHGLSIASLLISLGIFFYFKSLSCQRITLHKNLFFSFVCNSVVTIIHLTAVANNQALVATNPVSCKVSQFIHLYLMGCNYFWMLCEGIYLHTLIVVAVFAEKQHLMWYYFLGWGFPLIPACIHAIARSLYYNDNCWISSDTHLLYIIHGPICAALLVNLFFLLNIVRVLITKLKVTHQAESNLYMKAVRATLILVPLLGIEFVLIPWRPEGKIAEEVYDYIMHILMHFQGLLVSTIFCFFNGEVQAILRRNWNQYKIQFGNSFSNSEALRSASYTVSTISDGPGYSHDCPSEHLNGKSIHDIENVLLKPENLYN
Sequence of human CGRP receptor (O60894 27-148 limits assumed, chain 2 of 2): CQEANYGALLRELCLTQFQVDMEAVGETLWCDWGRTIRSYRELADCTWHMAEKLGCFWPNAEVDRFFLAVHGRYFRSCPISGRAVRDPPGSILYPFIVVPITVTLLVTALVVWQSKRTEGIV

| Binder | % inhibition of human CGRPR (human CGRP receptor) [%] | % inhibition of human PAC1 (human PAC1 receptor) [%] |
| --- | --- | --- |
| B1 | 81 | 95 |
| B2 | 79 | 99 |
| B3 | 82 | 21 |
| B4 | 88 | 65 |
| B5 | 65 | 67 |
| B6 | 75 | 7 |
| B7 | 73 | 52 |
| B8 | 70 | 68 |
| B9 | 73 | 91 |
| B10 | 76 | 21 |
| B11 | 74 | 32 |
| B12 | 96 | 86 |
| B13 | 71 | 6 |
| B14 | 66 | 74 |
| B15 | 81 | 63 |
| B16 | 76 | 22 |
